Source: IntAct's records for PubMed 23976881

B1: Heterogeneous nuclear ribonucleoprotein L (Homo sapiens), P14866-1 (parent)
chain: MSRRLLPRAEKRRRRLEQRQQPDEQRRRSGAMVKMAAAGGGGGGGRYYGGGSEGGRAPKRLKTDNAGDQHGGGGGGGGGAGAAGGGGGGENYDDPHKTPASPVVHIRGLIDGVVEADLVEALQEFGPISYVVVMPKKRQALVEFEDVLGACNAVNYAADNQIYIAGHPAFVNYSTSQKISRPGDSDDSRSVNSVLLFTILNPIYSITTDVLYTICNPCGPVQRIVIFRKNGVQAMVEFDSVQSAQRAKASLNGADIYSGCCTLKIEYAKPTRLNVFKNDQDTWDYTNPNLSGQGDPGSNPNKRQRQPPLLGDHPAEYGGPHGGYHSHYHDEGYGPPPPHYEGRRMGPPVGGHRRGPSRYGPQYGHPPPPPPPPEYGPHADSPVLMVYGLDQSKMNCDRVFNVFCLYGNVEKVKFMKSKPGAAMVEMADGYAVDRAITHLNNNFMFGQKLNVCVSKQPAIMPGQSYGLEDGSCSYKDFSESRNNRFSTPEQAAKNRIQHPSNVLHFFNAPLEVTEENFFEICDELGVKRPSSVKVFSGKSERSSSGLLEWESKSDALETLGFLNHYQMKNPNGPYPYTLKLCFSTAQHAS

Variants of: B1
Details: with roa2_human HNRNPA2B1, P22626
Sequence of roa2_human HNRNPA2B1, P22626 (P22626 whole entry): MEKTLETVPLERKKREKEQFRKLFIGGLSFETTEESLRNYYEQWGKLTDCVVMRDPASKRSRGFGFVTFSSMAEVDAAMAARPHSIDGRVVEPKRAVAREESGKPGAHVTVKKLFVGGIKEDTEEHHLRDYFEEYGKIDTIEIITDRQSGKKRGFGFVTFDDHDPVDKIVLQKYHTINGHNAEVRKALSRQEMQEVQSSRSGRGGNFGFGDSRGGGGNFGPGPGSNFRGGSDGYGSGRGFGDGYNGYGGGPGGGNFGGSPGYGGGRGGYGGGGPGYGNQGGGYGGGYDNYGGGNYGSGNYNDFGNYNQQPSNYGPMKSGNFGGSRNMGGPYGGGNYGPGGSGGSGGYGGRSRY

effect of a mutation on the interaction	Variant
increasing interaction strength	Y359D
